Experimental data published in PMC4682114.
Blank lines part the entries; values can stand above or below the substance they belong to.

Tests used:
Histone H1.0 (human) [1] = target: Histone H1.0 (human) (UniProt P07305); experiment: FRET; conditions: FRET/PIFE/EMSA: 5 nM nucleosomes, 10 mM Tris-HCl pH 8.0, 130 mM NaCl, 10% glycerol, 0.005% Tween20, 10 min at 20 C, EMSA on 4% polyacrylamide, 0.3x TTE
Histone H1.0 (human) [2] = target: Histone H1.0 (human) (UniProt P07305); experiment: PIFE; conditions: AmC6dT at position 43; unlabelled human octamer; FRET/PIFE/EMSA: 5 nM nucleosomes, 10 mM Tris-HCl pH 8.0, 130 mM NaCl, 10% glycerol, 0.005% Tween20, 10 min at 20 C; EMSA on 4% polyacrylamide, 0.3x TTE
Histone H1.2 (human) = Histone H1.2 (human) (UniProt P16403); experiment: FRET; conditions: AmC6dT at position 43; human octamer H2A(K119C), H2B, H3(C110A), H4; FRET/PIFE/EMSA: 5 nM nucleosomes, 10 mM Tris-HCl pH 8.0, 130 mM NaCl, 10% glycerol, 0.005% Tween20, 10 min at 20 C; EMSA on 4% polyacrylamide, 0.3x TTE
Histone H1.x (human) = Histone H1.x (human) (UniProt Q92522); experiment: FRET; conditions: AmC6dT at position 43; human octamer H2A(K119C), H2B, H3(C110A), H4; FRET/PIFE/EMSA: 5 nM nucleosomes, 10 mM Tris-HCl pH 8.0, 130 mM NaCl, 10% glycerol, 0.005% Tween20, 10 min at 20 C; EMSA on 4% polyacrylamide, 0.3x TTE
[3] = target: Cy3 only labelled unmodified nucleosome (Cy3-L DNA, unlabelled histone octamer) (human) (UniProt P0C0S8); experiment: other fluorescence titration; PIFE (protein-induced fluorescence enhancement) of Cy3 on the linker DNA of Cy3 only nucleosomes; 5 nM nucleosomes, 0-300 nM H1 and/or 0-1,000 nM Gal4, 10 mM Tris-HCl pH 8.0, 130 mM NaCl, 10% glycerol, 0.005% TWEEN20, 10 min at 20 C; Hill curve, S1/2
[4] = target: Cy3-Cy5 labelled H3K122ac nucleosome (Cy3-L DNA) (UniProt P0C0S8); experiment: other fluorescence titration; FRET efficiency between Cy3 on the DNA and Cy5 on the histone octamer (reports DNA wrapping) against H1 concentration; 5 nM nucleosomes, 0-300 nM H1, 10 mM Tris-HCl pH 8.0, 130 mM NaCl, 10% glycerol, 0.005% TWEEN20, 10 min at 20 C; Hill curve, S1/2; points of aggregated nucleosomes excluded
[5] = target: Cy3-Cy5 labelled H3K56Q nucleosome (Cy3-L DNA) (human) (UniProt P0C0S8); experiment: as above
[6] = target: Cy3-Cy5 labelled H3K56ac nucleosome (Cy3-L DNA) (UniProt P0C0S8); experiment: as above
[7] = target: Cy3-Cy5 labelled unmodified nucleosome (Cy3-L DNA, Cy5 on H2A K119C) (human) (UniProt P0C0S8); experiment: as above

Substance: AAGCTTGTCGACGAATTCAGATATAAGGAGGACACTGGGACATGCATCGGCTGGAGACCGGAGGGCTGCCCTCCGGTCAATTGGTCGTAGACAGCTCTAGCACCGCTTAAACGCACGTACGCGCTGTCCCCCGCGTTTTAACCGCCAAGGGGATTACTCCCTAGTCTCCAGGCACGTGTCAGATATATACATCCTGT (double strand) [Linker-L nucleosome]
- K half (Histone H1.0 (human) [1]; AmC6dT at position 43, human octamer): 12 nM

Substance: AAGCTTGTCGACGAATTCAGATATAAGGAGGACACTGGGACATGCATCGGCTGGAGACCGGAGGGCTGCCCTCCGGTCAATTGGTCGTAGACAGCTCTAGCACCGCTTAAACGCACGTACGCGCTGTCCCCCGCGTTTTAACCGCCAAGGGGATTACTCCCTAGTCTCCAGGCACGTGTCAGATATATACATCCTGTATAATGCATAGGGCAGTGAGTTGACGCTACAATCACGAATTCTGGATCCGATACGTAACGCGTCTGCAGCATGCG (double strand) [Cy3-L nucleosome, unmodified, Cy3 only]
- K half (Histone H1.0 (human) [2]): 13 nM

Substance: AAGCTTGTCGACGAATTCAGATATAAGGAGGACACTGGGACATGCATCGGCTGGAGACCGGAGGGCTGCCCTCCGGTCAATTGGTCGTAGACAGCTCTAGCACCGCTTAAACGCACGTACGCGCTGTCCCCCGCGTTTTAACCGCCAAGGGGATTACTCCCTAGTCTCCAGGCACGTGTCAGATATATACATCCTGTATAATGCATAGGGCAGTGAGTTGACGCTACAATCACGAATTCTGGATCCGATACGTAACGCGTCTGCAGCATGCG (double strand) [Cy3-L nucleosome, unmodified, Cy5-H2A(K119C)]
- K half (Histone H1.0 (human) [1]; AmC6dT at position 43, human octamer H2A(K119C), H2B, H3(C110A), H4): 9 nM
- K half (Histone H1.2 (human)): 6 nM
- K half (Histone H1.x (human)): 13 nM

Substance: CTGGAGACCGGAGGGCTGCCCTCCGGTCAATTGGTCGTAGACAGCTCTAGCACCGCTTAAACGCACGTACGCGCTGTCCCCCGCGTTTTAACCGCCAAGGGGATTACTCCCTAGTCTCCAGGCACGTGTCAGATATATACATCCTGTATAATGCATAGGGCAGTGAGTTGACGCTACAATCACGAATTCTGGATCCGATACGTAACGCGTCTGCAGCATGCG (double strand) [Linker-R nucleosome]
- K half (Histone H1.0 (human) [1]; smaller FRET change, 5' AminoC6, human octamer): 11 nM

- S1/2 [3]: 13 nM
- S1/2 [4]: 14 nM
- S1/2 [5]: 15 nM
- S1/2 [6]: 14 nM
- S1/2 [7]: 9 nM
Substance: human linker histone H1.0 (from UniProt P07305 1-194) (natural protein)

- S1/2 [7]: 6 nM
Substance: human linker histone H1.2, 6xHis tagged (from UniProt P16403 1-213) (natural protein)

- S1/2 [7]: 13 nM
Substance: human linker histone H1.x, 6xHis tagged (from UniProt Q92522 1-213) (natural protein)
